Data as given in paper PMC5770381.

Columns and labels:
Test in all cases: purified protein
[1] = tested on: CO/N=C(\C(=O)N[C@@H]1C(=O)N2C(C(=O)O)=C(COC(C)=O)CS[C@H]12)c1csc(N)n1; conditions: Tris-HCl pH 7.4, 35 °C, 10-100 μM substrate
[2] = tested on: C[C@@H](O)[C@H]1C(=O)N2C(C(=O)O)=C(S[C@@H]3CN[C@H](C(=O)N(C)C)C3)[C@H](C)[C@H]12; conditions: Tris-HCl pH 7.4, 35 °C, 10-200 μM substrate
[3] = tested on: CC1(C)S[C@@H]2[C@H](NC(=O)[C@H](N)c3ccc(O)cc3)C(=O)N2[C@H]1C(=O)O; conditions: Tris-HCl pH 7.4, 35 °C, 20-500 μM substrate

Substance: ElBla2 (Erythrobacter litoralis HTCC2594)
- Km [1]: 13 ± 4 µM
- kcat [1]: 0.9 ± 0.1 s⁻¹
- kcat/Km [1]: 70000 M⁻¹ s⁻¹
- Km [2]: 19 ± 6 µM
- kcat [2]: 2.1 ± 0.2 s⁻¹
- kcat/Km [2]: 110000 M⁻¹ s⁻¹
- Km [3]: 39 ± 9 µM
- kcat [3]: 1.4 ± 0.1 s⁻¹
- kcat/Km [3]: 40000 M⁻¹ s⁻¹
